Target: LC3B (UniProt Q9GZQ8)
Experiment: NMR titration of labelled LC3B
Details: reference: unphosphorylated peptide P0; sites S34,S35

Nix (from UniProt O60238) pS34 pS35 peptide P2
KD: stronger; reference ~100

— publication PMC5430633, “Phosphorylation of the mitochondrial autophagy receptor Nix enhances its interaction with LC3 proteins” (Scientific Reports, 2017)
